Laboratory results as given in the supplement of paper PMC9112550, “Optimization of the antimicrobial peptide Bac7 by deep mutational scanning” (BMC Biology, 2022).

These sequences were tested on Escherichia coli TOP10 (assay: shrunken log2 fold change of peptide-encoding DNA abundance (4.5 h post-induction vs induction); higher = less antimicrobial activity (less host growth inhibition)). Conditions: time post-induction: 4.5 h; library: site-saturation at positions 5, 18, 19, 20.
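Also: peptides expressed intracellularly from a pBAD plasmid library in pooled LB shake-flask culture, induced with 0.3% L-arabinose, DNA abundance read by NGS, three biological replicates, DESeq2 with apeglm shrinkage.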

Row | Sequence | shrunken log2 fold change
1 | RRIRDRPPRLPRPRPRPEPMPRP | 0.035
2 | RRIRHRPPRLPRPRPRPAPLPRP | 0.16
3 | RRIRPRPPRLPRPRPRPFWIPRP | -0.161
4 | RRIRARPPRLPRPRPRPETHPRP | 0.56
5 | RRIRKRPPRLPRPRPRPEICPRP | 0.661
6 | RRIRWRPPRLPRPRPRPIKFPRP | -0.285
7 | RRIRGRPPRLPRPRPRPMAKPRP | 0.658
8 | RRIRNRPPRLPRPRPRPGFSPRP | 0.0167
9 | RRIRLRPPRLPRPRPRPEFGPRP | 0.07
10 | RRIRVRPPRLPRPRPRPVMQPRP | -0.0429
11 | RRIRRRPPRLPRPRPRPKCRPRP | 0.453
12 | RRIRIRPPRLPRPRPRPNQMPRP | -0.173
13 | RRIRKRPPRLPRPRPRPIMVPRP | 0.248
14 | RRIRSRPPRLPRPRPRPRWSPRP | 0.122
15 | RRIRIRPPRLPRPRPRPQGSPRP | -0.0316
16 | RRIRDRPPRLPRPRPRPRQVPRP | 0.262
17 | RRIRIRPPRLPRPRPRPETYPRP | -0.263
18 | RRIRHRPPRLPRPRPRPRRMPRP | 0.254
19 | RRIRCRPPRLPRPRPRPHWRPRP | 0.382
20 | RRIRPRPPRLPRPRPRPWAAPRP | 0.126
21 | RRIRLRPPRLPRPRPRPNGGPRP | -0.01
22 | RRIRDRPPRLPRPRPRPWHHPRP | -0.179
23 | RRIRNRPPRLPRPRPRPQHLPRP | -0.517
24 | RRIRTRPPRLPRPRPRPVCAPRP | 0.266
25 | RRIRTRPPRLPRPRPRPGHKPRP | -0.106

Row | Sequence | shrunken log2 fold change
26 | RRIRVRPPRLPRPRPRPFPKPRP | -0.0266
27 | RRIRSRPPRLPRPRPRPKVKPRP | 0.0666
28 | RRIRQRPPRLPRPRPRPLWSPRP | -0.147
29 | RRIRRRPPRLPRPRPRPMSFPRP | -0.0277
30 | RRIRVRPPRLPRPRPRPQCWPRP | 0.198
31 | RRIRNRPPRLPRPRPRPLYMPRP | -0.308
32 | RRIRVRPPRLPRPRPRPGHRPRP | -0.0978
33 | RRIRVRPPRLPRPRPRPYWCPRP | -0.409
34 | RRIRRRPPRLPRPRPRPTEHPRP | 0.0963
35 | RRIRERPPRLPRPRPRPCEQPRP | -0.0101
36 | RRIRERPPRLPRPRPRPDRFPRP | -0.01
37 | RRIRGRPPRLPRPRPRPLEAPRP | 1.44
38 | RRIRERPPRLPRPRPRPCRNPRP | -0.269
39 | RRIRCRPPRLPRPRPRPHPIPRP | -0.229
40 | RRIRNRPPRLPRPRPRPYYRPRP | 0.0545
41 | RRIRVRPPRLPRPRPRPESSPRP | 0.00518
42 | RRIRDRPPRLPRPRPRPGSCPRP | 0.127
43 | RRIRQRPPRLPRPRPRPTKHPRP | -0.167
44 | RRIRSRPPRLPRPRPRPANFPRP | 0.0977
45 | RRIRERPPRLPRPRPRPHCYPRP | -0.291
46 | RRIRGRPPRLPRPRPRPSLMPRP | 0.5
47 | RRIRNRPPRLPRPRPRPPNYPRP | -0.564
48 | RRIRTRPPRLPRPRPRPNTAPRP | -0.0235
49 | RRIRHRPPRLPRPRPRPLILPRP | 0.0886
50 | RRIRPRPPRLPRPRPRPKVEPRP | 0.00158

Row | Sequence | shrunken log2 fold change
51 | RRIRPRPPRLPRPRPRPFFPPRP | -0.135
52 | RRIRLRPPRLPRPRPRPYRNPRP | -1.13
53 | RRIRIRPPRLPRPRPRPMAFPRP | -0.0587
54 | RRIRVRPPRLPRPRPRPYGKPRP | -0.289
55 | RRIRFRPPRLPRPRPRPYMCPRP | -0.0146
56 | RRIRLRPPRLPRPRPRPFLWPRP | -0.314
57 | RRIRLRPPRLPRPRPRPPHEPRP | 0.269
58 | RRIRVRPPRLPRPRPRPWGRPRP | 0.0354
59 | RRIRVRPPRLPRPRPRPMIAPRP | 0.261
60 | RRIRERPPRLPRPRPRPMNHPRP | -0.811
61 | RRIRVRPPRLPRPRPRPFECPRP | -0.0624
62 | RRIRSRPPRLPRPRPRPVDLPRP | -0.199
63 | RRIRVRPPRLPRPRPRPMRAPRP | 0.71
64 | RRIRMRPPRLPRPRPRPSVTPRP | 0.703
65 | RRIRKRPPRLPRPRPRPVFAPRP | 2.02
66 | RRIRRRPPRLPRPRPRPELQPRP | 0.212
67 | RRIRDRPPRLPRPRPRPLIDPRP | 0.0319
68 | RRIRCRPPRLPRPRPRPHRHPRP | -0.275
69 | RRIRWRPPRLPRPRPRPHMHPRP | -0.36
70 | RRIRNRPPRLPRPRPRPKNMPRP | -0.189
71 | RRIRLRPPRLPRPRPRPIYPPRP | -0.134
72 | RRIRKRPPRLPRPRPRPLVIPRP | -0.0927
73 | RRIRNRPPRLPRPRPRPQSCPRP | -0.00689
74 | RRIRFRPPRLPRPRPRPISHPRP | -0.202
75 | RRIRDRPPRLPRPRPRPRISPRP | 0.0345

Row | Sequence | shrunken log2 fold change
76 | RRIRKRPPRLPRPRPRPQKPPRP | 0.00856
77 | RRIRDRPPRLPRPRPRPGEVPRP | 0.247
78 | RRIRCRPPRLPRPRPRPMGVPRP | -0.152
79 | RRIRWRPPRLPRPRPRPHKYPRP | -0.652
80 | RRIRERPPRLPRPRPRPLCCPRP | -0.191
81 | RRIRPRPPRLPRPRPRPCCDPRP | 0.249
82 | RRIRRRPPRLPRPRPRPRNAPRP | 0.356
83 | RRIRQRPPRLPRPRPRPMYAPRP | 0.151
84 | RRIRCRPPRLPRPRPRPGICPRP | -0.0835
85 | RRIRRRPPRLPRPRPRPQHKPRP | 0.0372
86 | RRIRVRPPRLPRPRPRPQELPRP | -0.0343
87 | RRIRFRPPRLPRPRPRPGVYPRP | -0.0669
88 | RRIRGRPPRLPRPRPRPAMSPRP | 0.508
89 | RRIRFRPPRLPRPRPRPFPAPRP | -0.132
90 | RRIRNRPPRLPRPRPRPLPEPRP | -0.00875
91 | RRIRHRPPRLPRPRPRPVGWPRP | 0.535
92 | RRIRNRPPRLPRPRPRPRGTPRP | 0.224
93 | RRIRKRPPRLPRPRPRPTEEPRP | 2.12
94 | RRIRERPPRLPRPRPRPFFVPRP | -0.292
95 | RRIRDRPPRLPRPRPRPWPQPRP | -0.121
96 | RRIRPRPPRLPRPRPRPFQPPRP | -0.0843
97 | RRIRWRPPRLPRPRPRPMCYPRP | -0.308
98 | RRIRDRPPRLPRPRPRPCRLPRP | 0.00469
99 | RRIRMRPPRLPRPRPRPLSQPRP | 0.0295
100 | RRIRDRPPRLPRPRPRPKNLPRP | -0.0874

Row | Sequence | shrunken log2 fold change
101 | RRIRPRPPRLPRPRPRPYWLPRP | -0.377
102 | RRIRDRPPRLPRPRPRPILVPRP | 0.0243
103 | RRIRMRPPRLPRPRPRPDTMPRP | 0.28
104 | RRIRYRPPRLPRPRPRPTSWPRP | -0.138
105 | RRIRKRPPRLPRPRPRPHKKPRP | -0.127
106 | RRIRMRPPRLPRPRPRPGFIPRP | 0.192
107 | RRIRFRPPRLPRPRPRPWHCPRP | -0.028
108 | RRIRWRPPRLPRPRPRPDNPPRP | 0.208
109 | RRIRTRPPRLPRPRPRPDFDPRP | -0.375
110 | RRIRFRPPRLPRPRPRPRMGPRP | 0.302
111 | RRIRLRPPRLPRPRPRPSRVPRP | 0.00872
112 | RRIRPRPPRLPRPRPRPVSIPRP | -0.271
113 | RRIRPRPPRLPRPRPRPYAFPRP | -0.264
114 | RRIRIRPPRLPRPRPRPHERPRP | -0.169
115 | RRIRSRPPRLPRPRPRPKPFPRP | -0.646
116 | RRIRNRPPRLPRPRPRPGLVPRP | 0.171
117 | RRIRERPPRLPRPRPRPRMQPRP | -0.0907
118 | RRIRGRPPRLPRPRPRPHERPRP | 0.878
119 | RRIRIRPPRLPRPRPRPVDDPRP | -0.0762
120 | RRIRIRPPRLPRPRPRPKEYPRP | -0.728
121 | RRIRQRPPRLPRPRPRPKHHPRP | -0.391
122 | RRIRIRPPRLPRPRPRPTERPRP | -0.0197
123 | RRIRARPPRLPRPRPRPRGIPRP | 0.488
124 | RRIRSRPPRLPRPRPRPCMYPRP | -0.0328
125 | RRIRQRPPRLPRPRPRPSSYPRP | -0.416

Row | Sequence | shrunken log2 fold change
126 | RRIRMRPPRLPRPRPRPKDSPRP | 1.66
127 | RRIRQRPPRLPRPRPRPFFHPRP | -0.532
128 | RRIRGRPPRLPRPRPRPEECPRP | 0.0881
129 | RRIRARPPRLPRPRPRPCGKPRP | 0.659
130 | RRIRNRPPRLPRPRPRPFRYPRP | -0.591
131 | RRIRKRPPRLPRPRPRPLKLPRP | 0.0766
132 | RRIRDRPPRLPRPRPRPSLQPRP | 0.073
133 | RRIRARPPRLPRPRPRPAMQPRP | 0.723
134 | RRIRIRPPRLPRPRPRPFGHPRP | -0.272
135 | RRIRERPPRLPRPRPRPYVTPRP | -0.447
136 | RRIRCRPPRLPRPRPRPLWVPRP | -0.1
137 | RRIRVRPPRLPRPRPRPFQKPRP | 0.0406
138 | RRIRKRPPRLPRPRPRPEGLPRP | 1.05
139 | RRIRRRPPRLPRPRPRPDCGPRP | 0.16
140 | RRIRARPPRLPRPRPRPDKEPRP | 0.0435
141 | RRIRGRPPRLPRPRPRPVQPPRP | 0.95
142 | RRIRERPPRLPRPRPRPQIPPRP | -0.237
143 | RRIRARPPRLPRPRPRPITTPRP | 0.1
144 | RRIRVRPPRLPRPRPRPTVGPRP | 0.553
145 | RRIRHRPPRLPRPRPRPTMIPRP | -0.112
146 | RRIRARPPRLPRPRPRPLPHPRP | 0.209
147 | RRIRFRPPRLPRPRPRPQCPPRP | -0.225
148 | RRIRGRPPRLPRPRPRPRLYPRP | 0.291
149 | RRIRCRPPRLPRPRPRPVEEPRP | -0.0384
150 | RRIRIRPPRLPRPRPRPCRDPRP | -0.132
